Results as given in the supplement of paper PMC7877785.
± gives the uncertainty stated by the source.

Assay: self-splicing fitness, log relative to wild type (ln ratio); higher = more splicing; Tetrahymena group I intron in knt gene, E. coli kanamycin selection, DiMSum; sequences stand for … in CUCUCU…GGAGGGAAAAGUUAUCAGGCAUGCACCUGGUAGCUAGUCUUUAAACCAAUAGAUUGCAUCGGUUUAAAAGGCAAGACCGUCAAAUUGCGGGAAAGGGGUCAACAGCCGUUCAGUACCAAGUCUCAGGGGAAACUUUGAGAUGGCCUUGCAAAGGGUAUGGUAAUAAGCUGACGGACAUGGUCCUAACCACGCAGCCAAGUCCUAAGUCAACAGAUCUUCUGUUGAUAUGGAUGCAGUUCACAGACUAAAUGUCGGUCGGGGAAGAUGUAUUCUUCUCAUAAGAUAUAGUCGGACCUCUCCUUAAUGGGAGCUAGCGGAUGAAGUGAUGCAACACUGGAGCCGCUGGGAACUAAUUUGUAUGCGAAAGUAUAUUGAUUAGUUUUGGAGUACUCGUGGUCG
Procedure, shortened: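 Library with all eight P1ex-region intron nucleotides randomised, intron inside the knt kanamycin-resistance gene on pET-22b(+), in E. coli BL21(DE3). Cells grew overnight at 37°C or 30°C on LB agar with or without 25 μg/mL kanamycin (plus 100 μg/mL carbenicillin, 50 μM IPTG, 0.2% rhamnose), in six replicate transformations. Pooled colonies were amplicon-sequenced on Illumina HiSeq 2500. DiMSum fitness is the error-weighted combination of wild-type-normalised replicate fold changes, kanamycin versus none.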

Sequence | self-splicing fitness (ln) (30 °C) | self-splicing fitness (ln) (37 °C)
UAGCAGCAAUAUUACGCAGG | -3.01 ± 0.25 | -2.14 ± 0.25
UAGCAGCAAUAUUACGCAUG | -0.793 ± 0.096 | -1.17 ± 0.14
UAGCAGCAAUAUUACGCCCG | -0.432 ± 0.18 | -0.57 ± 0.21
UAGCAGCAAUAUUACGGAGU | -3.64 ± 0.18 | -2.78 ± 0.15
UAGCAGCAAUAUUACGGCAC | -2.14 ± 0.18 | 0.167 ± 0.21
UAGCAGCAAUAUUACGGCGU | -0.605 ± 0.12 | 0.0421 ± 0.13
UAGCAGCAAUAUUACGGGCG | -0.609 ± 0.065 | -0.24 ± 0.087
UAGCAGCAAUAUUACGGGUC | – | -3.65 ± 0.42
UAGCAGCAAUAUUACGUAUC | -3.16 ± 0.16 | -2.87 ± 0.25
UAGCAGCAAUAUUACGUCAC | -4.49 ± 0.42 | -2.46 ± 0.33
UAGCAGCAAUAUUACGUCAG | -0.628 ± 0.1 | -1.13 ± 0.12
UAGCAGCAAUAUUACGUCGG | -0.706 ± 0.1 | -0.878 ± 0.13
UAGCAGCAAUAUUACGUCUG | -1.32 ± 0.14 | -1.6 ± 0.14
UAGCAGCAAUAUUACGUGCA | -0.411 ± 0.082 | -0.287 ± 0.086
UAGCAGCAAUAUUACGUUGA | -2.46 ± 0.13 | -2.07 ± 0.12
UAGGAGCAAUAUUACGAAGU | – | -2.35 ± 0.43
UAGGAGCAAUAUUACGAGAU | – | -1.95 ± 0.36
UAGGAGCAAUAUUACGAGGG | -3.6 ± 0.42 | -2.35 ± 0.33
UAGGAGCAAUAUUACGAUUC | -2.08 ± 0.37 | –
UAGGAGCAAUAUUACGAUUG | -1.85 ± 0.15 | -0.617 ± 0.16
UAGGAGCAAUAUUACGCACG | -2.12 ± 0.32 | -0.819 ± 0.25
UAGGAGCAAUAUUACGCAUG | -1.64 ± 0.2 | 0.135 ± 0.15
UAGGAGCAAUAUUACGCCGG | -2.07 ± 0.22 | -1.57 ± 0.3
UAGGAGCAAUAUUACGCUAG | -3.03 ± 0.19 | -0.83 ± 0.19
UAGGAGCAAUAUUACGCUGC | -3.05 ± 0.41 | -1.03 ± 0.42
UAGGAGCAAUAUUACGGGAC | -3.63 ± 0.4 | -2.85 ± 0.47

Sequence | self-splicing fitness (ln) (30 °C) | self-splicing fitness (ln) (37 °C)
UAGGAGCAAUAUUACGGUCC | -3.93 ± 0.37 | -0.78 ± 0.26
UAGGAGCAAUAUUACGGUGG | -2.79 ± 0.21 | -0.497 ± 0.17
UAGGAGCAAUAUUACGUACG | -1.28 ± 0.17 | -0.737 ± 0.3
UAGGAGCAAUAUUACGUCUC | -2.51 ± 0.49 | –
UAGGAGCAAUAUUACGUGUA | -2.02 ± 0.13 | -1.63 ± 0.12
UAGGAGCAAUAUUACGUGUC | -3.27 ± 0.34 | -1.82 ± 0.27
UAGGAGCAAUAUUACGUUCC | -2.97 ± 0.4 | –
UAGUAGCAAUAUUACGAAAG | – | -1.97 ± 0.26
UAGUAGCAAUAUUACGACCA | -0.4 ± 0.15 | 0.221 ± 0.17
UAGUAGCAAUAUUACGAGCC | -2.98 ± 0.47 | -2.31 ± 0.42
UAGUAGCAAUAUUACGAUCC | -3.16 ± 0.45 | -2.22 ± 0.4
UAGUAGCAAUAUUACGAUGU | – | -2.22 ± 0.32
UAGUAGCAAUAUUACGCAAU | – | -2.45 ± 0.35
UAGUAGCAAUAUUACGCACG | -0.964 ± 0.15 | -0.244 ± 0.21
UAGUAGCAAUAUUACGCCUU | -2.11 ± 0.12 | -0.556 ± 0.11
UAGUAGCAAUAUUACGCGUU | -2.86 ± 0.17 | -2.44 ± 0.23
UAGUAGCAAUAUUACGCUGG | -1.13 ± 0.099 | -1.34 ± 0.15
UAGUAGCAAUAUUACGGAAU | – | -2.65 ± 0.44
UAGUAGCAAUAUUACGGACG | -2.09 ± 0.12 | -0.623 ± 0.13
UAGUAGCAAUAUUACGGAUG | -0.956 ± 0.084 | -0.222 ± 0.087
UAGUAGCAAUAUUACGGGCC | -2.91 ± 0.23 | -1.62 ± 0.22
UAGUAGCAAUAUUACGUAGG | -3.19 ± 0.47 | –
UAGUAGCAAUAUUACGUCUG | 0.113 ± 0.19 | -0.884 ± 0.2
UAGUAGCAAUAUUACGUGCG | -1.52 ± 0.12 | -0.311 ± 0.15
UAGUAGCAAUAUUACGUGGU | -3.62 ± 0.18 | -3.33 ± 0.19
UAGUAGCAAUAUUACGUUGA | -2.34 ± 0.13 | -1.54 ± 0.12

Sequence | self-splicing fitness (ln) (30 °C) | self-splicing fitness (ln) (37 °C)
UAGUAGCAAUAUUACGUUUG | -2.4 ± 0.18 | -0.923 ± 0.14
UAUAAGCAAUAUUACGAGCU | -3.44 ± 0.34 | -1.47 ± 0.21
UAUAAGCAAUAUUACGAGUA | -0.776 ± 0.085 | -0.245 ± 0.081
UAUAAGCAAUAUUACGAUAC | – | -2.39 ± 0.33
UAUAAGCAAUAUUACGAUCA | -0.251 ± 0.1 | 0.847 ± 0.11
UAUAAGCAAUAUUACGCCAC | -3.21 ± 0.43 | -1.21 ± 0.38
UAUAAGCAAUAUUACGCGUU | -2.67 ± 0.14 | -0.931 ± 0.12
UAUAAGCAAUAUUACGCUCU | -0.357 ± 0.11 | 0.0533 ± 0.16
UAUAAGCAAUAUUACGCUGC | -3.35 ± 0.32 | –
UAUAAGCAAUAUUACGGCGU | -0.993 ± 0.093 | -0.232 ± 0.12
UAUAAGCAAUAUUACGGCUA | -0.234 ± 0.092 | -0.126 ± 0.13
UAUAAGCAAUAUUACGGCUU | -1.22 ± 0.12 | -0.669 ± 0.16
UAUAAGCAAUAUUACGGGAC | -4.01 ± 0.37 | -2.76 ± 0.32
UAUAAGCAAUAUUACGGUCA | -0.385 ± 0.12 | -0.125 ± 0.13
UAUAAGCAAUAUUACGUGAG | -1.56 ± 0.1 | -1.12 ± 0.14
UAUAAGCAAUAUUACGUGUG | -0.923 ± 0.073 | -0.446 ± 0.088
UAUCAGCAAUAUUACGAAAC | – | -2.08 ± 0.32
UAUCAGCAAUAUUACGAAGG | -1.58 ± 0.1 | -1.34 ± 0.13
UAUCAGCAAUAUUACGACAG | -0.385 ± 0.078 | 0.0531 ± 0.1
UAUCAGCAAUAUUACGACUC | -0.81 ± 0.11 | -0.283 ± 0.12
UAUCAGCAAUAUUACGACUG | 0.153 ± 0.078 | 0.512 ± 0.13
UAUCAGCAAUAUUACGAGAA | -1.22 ± 0.16 | -0.559 ± 0.13
UAUCAGCAAUAUUACGAGCG | -0.616 ± 0.059 | 0.345 ± 0.088
UAUCAGCAAUAUUACGAUGU | -0.816 ± 0.072 | -0.0178 ± 0.11
UAUCAGCAAUAUUACGAUUG | -0.748 ± 0.087 | 0.588 ± 0.1
UAUCAGCAAUAUUACGCAUG | -1.1 ± 0.082 | 0.181 ± 0.099

Sequence | self-splicing fitness (ln) (30 °C) | self-splicing fitness (ln) (37 °C)
UAUCAGCAAUAUUACGCCCG | -0.133 ± 0.098 | -0.202 ± 0.13
UAUCAGCAAUAUUACGCCUU | -0.446 ± 0.24 | -0.723 ± 0.23
UAUCAGCAAUAUUACGCUAU | -2.29 ± 0.11 | -1.74 ± 0.1
UAUCAGCAAUAUUACGCUUA | -0.532 ± 0.13 | 0.504 ± 0.13
UAUCAGCAAUAUUACGCUUC | -2.82 ± 0.23 | -2.09 ± 0.27
UAUCAGCAAUAUUACGGAGA | -0.973 ± 0.085 | -0.0429 ± 0.1
UAUCAGCAAUAUUACGGGUA | -1.2 ± 0.092 | -0.623 ± 0.1
UAUCAGCAAUAUUACGGGUU | -1.83 ± 0.1 | -0.944 ± 0.11
UAUCAGCAAUAUUACGGUGU | -1.35 ± 0.072 | -1.19 ± 0.098
UAUCAGCAAUAUUACGUUGG | -2.48 ± 0.089 | -0.612 ± 0.1
UAUGAGCAAUAUUACGAAAC | -2.34 ± 0.21 | –
UAUGAGCAAUAUUACGACUA | -0.118 ± 0.11 | 0.0355 ± 0.12
UAUGAGCAAUAUUACGACUU | -2.66 ± 0.24 | –
UAUGAGCAAUAUUACGAGUC | – | -0.461 ± 0.46
UAUGAGCAAUAUUACGCCUA | -1.59 ± 0.18 | -0.615 ± 0.21
UAUGAGCAAUAUUACGCGUC | -2.05 ± 0.16 | -2.81 ± 0.37
UAUGAGCAAUAUUACGCUCC | -1.47 ± 0.31 | –
UAUGAGCAAUAUUACGCUUU | -4.14 ± 0.33 | -2.65 ± 0.36
UAUGAGCAAUAUUACGGAGC | -1.38 ± 0.36 | –
UAUGAGCAAUAUUACGGAGU | -4.87 ± 0.36 | -3.53 ± 0.37
UAUGAGCAAUAUUACGGCCG | -1.33 ± 0.36 | -1.01 ± 0.35
UAUGAGCAAUAUUACGGGCC | – | -3.14 ± 0.43
UAUGAGCAAUAUUACGGGGG | -3.16 ± 0.26 | -2.31 ± 0.29
